According to doi:10.1101/2020.10.02.323899:

Assays:
[1] = biological target: actin from Xenopus laevis oocytes (Xenopus laevis (endogenous in oocytes)) (UniProt O93400); assay: SEC-MALS + AUC
[2] = biological target: Xenopus cyclase-associated protein 1 (Xenopus laevis (endogenous in oocytes)); assay: SEC-MALS + AUC

## Xenopus cyclase-associated protein 1 (natural protein)
[1]
  stoichiometry N (XCAP1 per actin (4:4)): 1
[2]
  stoichiometry N (XCAP1 molecules in the complex): 4
